± gives the uncertainty stated by the source.

Data on 167 variants can be found in the Human Domainome abundance scans (Beltran et al. 2025).

B1: POU domain, class 4, transcription factor 3, residues 185 to 256; numbered along this chain, Q15319 (parent)
chain: RELEAFAERFKQRRIKLGVTQADVGAALANLKIPGVGSLSQSTICRFESLTLSHNNMIALKPVLQAWLEEAE
B2: Apoptosis-associated speck-like protein containing a CARD, residues 114 to 194; numbered along this chain, Q9ULZ3 (parent)
chain: FIDQHRAALIARVTNVEWLLDALYGKVLTDEQYQAVRAEPTNPSKMRKLFSFTPAWNWTCKDLLLQALRESQSYLVEDLER

Variants of B1 are the subject of the first data set. As to the kind of experiment: abundance fitness (aPCA) (normalised: wild type 0, dead -1); higher = more abundant; growth selection in yeast, the domain comes from the species named. The following applies: Homo sapiens.
For the variant S53E, the abundance fitness was -0.065 ± 0.084.

With S53G, the abundance fitness is -0.061 ± 0.046.

In the case of E8W, the abundance fitness is -0.2 ± 0.051.

E8N: the abundance fitness was -0.434 ± 0.35.

Regarding E8Y, the abundance fitness was -0.236 ± 0.13.

As for E8D, the abundance fitness is -0.05 ± 0.14.

With T20R, the abundance fitness is -0.258 ± 0.022.

For T20Q, the abundance fitness was -0.27 ± 0.028.

T20H: the abundance fitness was -0.221 ± 0.068.

In the case of T20A, the abundance fitness is -0.229 ± 0.031.

Turning to G35M, the abundance fitness was -0.099 ± 0.087.

Turning to A66T, the abundance fitness is -0.074 ± 0.18.

On to A66G, for which the abundance fitness is -0.013 ± 0.092.

Turning to A66Q, the abundance fitness was found to be 0.042 ± 0.2.

Regarding A66R, the abundance fitness was -0.133 ± 0.08.

With F10R, the abundance fitness was -0.653 ± 0.33.

Turning to A27Y, the abundance fitness is -0.084 ± 0.088.

As for A27G, the abundance fitness was -0.196 ± 0.046.

As for A27D, the abundance fitness is -0.431 ± 0.23.

Consider E2Y, for which the abundance fitness is -0.686 ± 0.21.

Consider E2M, for which the abundance fitness was -0.437 ± 0.13.

Regarding I33M, the abundance fitness was -0.283 ± 0.1.

For I33P, the abundance fitness was -0.139 ± 0.13.

For I33F, the abundance fitness was -0.223 ± 0.088.

For the variant P34Q, the abundance fitness was -0.458 ± 0.19.

Turning to P34C, the abundance fitness is -0.137 ± 0.16.

Take P34M: the abundance fitness is -0.141 ± 0.093.

Regarding P34K, the abundance fitness is -0.433 ± 0.33.

Consider A59L, for which the abundance fitness is -0.393 ± 0.39.

As to N56F, the abundance fitness is -0.628 ± 0.078.

On to Q21G, for which the abundance fitness was -0.429 ± 0.15.

Turning to Q21A, the abundance fitness is -0.086 ± 0.12.

In the case of Q21I, the abundance fitness was -0.035 ± 0.07.

For the variant Q21D, the abundance fitness was -0.262 ± 0.42.

Take Q21N: the abundance fitness amounted to 0.112 ± 0.18.

With T51H, the abundance fitness was -0.201 ± 0.21.

On to T51S, for which the abundance fitness was 0.056 ± 0.059.

As to T51W, the abundance fitness was -0.406 ± 0.036.

On to T51A, for which the abundance fitness is -0.041 ± 0.056.

Regarding T51P, the abundance fitness was -1.19 ± 0.27.

For T51R, the abundance fitness came to 0.028 ± 0.058.

For the variant T51K, the abundance fitness stood at 0.111 ± 0.12.

Turning to V63Q, the abundance fitness is -0.34 ± 0.094.

V63H: the abundance fitness is 0.019 ± 0.14.

With E70N, the abundance fitness amounted to 0.114 ± 0.056.

On to E70Q, for which the abundance fitness was -0.084 ± 0.055.

Regarding E4Y, the abundance fitness is -0.125 ± 0.07.

Regarding E4K, the abundance fitness was -0.125 ± 0.11.

On to N30S, for which the abundance fitness is -0.186 ± 0.098.

Regarding N30T, the abundance fitness is -0.005 ± 0.11.

With N30R, the abundance fitness was -0.148 ± 0.078.

In the case of L68E, the abundance fitness is -0.503 ± 0.042.

For L68K, the abundance fitness is -0.901 ± 0.054.

L68N: the abundance fitness was -0.912 ± 0.12.

Take L68W: the abundance fitness was -0.574 ± 0.041.

For the variant L68T, the abundance fitness is -0.46 ± 0.038.

Take L68A: the abundance fitness is -0.287 ± 0.032.

Turning to G25N, the abundance fitness is -0.963 ± 0.49.

Turning to G25K, the abundance fitness was -0.311 ± 0.37.

Turning to G25F, the abundance fitness was -0.13 ± 0.098.

The variants in the next data set derive from B2. Described as above. To be noted: Homo sapiens.
In the case of F1E, the abundance fitness is -0.745 ± 0.27.

Take F1Y: the abundance fitness was -1 ± 0.43.

L64K: the abundance fitness was -0.918 ± 0.2.

Consider L64S, for which the abundance fitness is -0.853 ± 0.1.

On to L64M, for which the abundance fitness was 0.163 ± 0.075.

With Y24M, the abundance fitness is -0.501 ± 0.065.

Turning to M46L, the abundance fitness was -0.298 ± 0.06.

L65S: the abundance fitness was -0.512 ± 0.07.

In the case of L65W, the abundance fitness was -0.172 ± 0.066.

Turning to Q66S, the abundance fitness was -0.322 ± 0.066.

In the case of P54V, the abundance fitness is -0.197 ± 0.054.

Turning to L20D, the abundance fitness is -0.518 ± 0.12.

Consider K48P, for which the abundance fitness was -0.71 ± 0.11.

Turning to K48M, the abundance fitness is -0.221 ± 0.079.

In the case of L79K, the abundance fitness is -0.857 ± 0.2.

Consider L68M, for which the abundance fitness was -0.449 ± 0.18.

Consider R12N, for which the abundance fitness is -0.14 ± 0.16.

Consider T29S, for which the abundance fitness is -0.208 ± 0.35.

S51I: the abundance fitness was -0.904 ± 0.32.

With S51C, the abundance fitness is -0.429 ± 0.12.

As to W56I, the abundance fitness is -0.434 ± 0.16.

As for W56V, the abundance fitness is -0.694 ± 0.097.

Take W56G: the abundance fitness was -0.838 ± 0.097.

On to W56N, for which the abundance fitness is -0.83 ± 0.25.

On to W18F, for which the abundance fitness worked out at 0.213 ± 0.091.

As to W18A, the abundance fitness came out at 0.248 ± 0.046.

With I10N, the abundance fitness is -0.745 ± 0.29.

For the variant T41R, the abundance fitness was -0.907 ± 0.1.

For the variant L23I, the abundance fitness is -0.564 ± 0.29.

With L23S, the abundance fitness was -0.879 ± 0.13.

Consider T14W, for which the abundance fitness is -0.864 ± 0.16.

For R47G, the abundance fitness is -0.62 ± 0.061.

Consider G25D, for which the abundance fitness was -0.255 ± 0.11.

On to L63E, for which the abundance fitness is -0.31 ± 0.1.

In the case of L63S, the abundance fitness was -0.61 ± 0.099.

As for L63A, the abundance fitness is -0.185 ± 0.053.

For A22C, the abundance fitness is -0.127 ± 0.092.

Turning to A22S, the abundance fitness is -0.057 ± 0.07.

Take A22K: the abundance fitness is 0.331 ± 0.081.

On to A22P, for which the abundance fitness is -1 ± 0.2.

Take T59R: the abundance fitness is 0.111 ± 0.042.

Take L19G: the abundance fitness is -0.827 ± 0.081.

With L19N, the abundance fitness is -0.704 ± 0.46.

L19D: the abundance fitness is -0.395 ± 0.097.

Turning to K45M, the abundance fitness was -0.34 ± 0.13.

Q34D: the abundance fitness is -0.185 ± 0.21.

Take Q34G: the abundance fitness was -0.599 ± 0.061.

On to Q34Y, for which the abundance fitness was -0.332 ± 0.21.

For the variant Q34C, the abundance fitness is -0.3 ± 0.11.

Take A8P: the abundance fitness is -0.945 ± 0.16.

Consider A8G, for which the abundance fitness is -0.577 ± 0.059.

Turning to A8V, the abundance fitness is -0.424 ± 0.11.

On to H5Q, for which the abundance fitness is -0.341 ± 0.11.

For H5G, the abundance fitness was -0.833 ± 0.082.

Consider L9K, for which the abundance fitness is -0.948 ± 0.25.

As for L9H, the abundance fitness is -0.749 ± 0.18.

For L28Y, the abundance fitness was -0.783 ± 0.25.

For the variant E17P, the abundance fitness is -0.705 ± 0.084.

Consider E17M, for which the abundance fitness was -0.49 ± 0.061.

E39M: the abundance fitness is -0.129 ± 0.1.

For E39S, the abundance fitness is -0.842 ± 0.11.

For the variant E31K, the abundance fitness was -0.65 ± 0.21.

Regarding K26W, the abundance fitness was -0.481 ± 0.044.

As for K26E, the abundance fitness is -0.323 ± 0.085.

In the case of K26C, the abundance fitness is -0.262 ± 0.094.

On to D78I, for which the abundance fitness was -0.186 ± 0.18.

Take D78C: the abundance fitness was -0.124 ± 0.11.

As for D3I, the abundance fitness was -0.796 ± 0.27.

As for N15I, the abundance fitness was -0.857 ± 0.25.

For the variant N15W, the abundance fitness was -0.605 ± 0.17.

Regarding V13H, the abundance fitness is -0.878 ± 0.26.

As for K61L, the abundance fitness was -0.901 ± 0.13.

Take K61W: the abundance fitness was -0.003 ± 0.071.

For the variant K61P, the abundance fitness was -0.806 ± 0.12.

With K61V, the abundance fitness is -0.649 ± 0.072.

Consider S44G, for which the abundance fitness is -0.063 ± 0.042.

For E80C, the abundance fitness is -0.347 ± 0.079.

As for A38W, the abundance fitness was -0.861 ± 0.16.

For A38S, the abundance fitness was -0.056 ± 0.051.

Consider A38C, for which the abundance fitness is -0.297 ± 0.087.

For the variant A38M, the abundance fitness was -0.11 ± 0.071.

On to V27G, for which the abundance fitness is -0.419 ± 0.048.

For L49S, the abundance fitness was -0.798 ± 0.1.

Q4G: the abundance fitness was -0.685 ± 0.081.

As for Q4K, the abundance fitness was -0.111 ± 0.074.

Consider Q4R, for which the abundance fitness is -0.19 ± 0.043.

As to Q32Y, the abundance fitness is -0.891 ± 0.14.

Turning to Q32A, the abundance fitness was -0.911 ± 0.1.

Consider E77T, for which the abundance fitness was -0.63 ± 0.19.

With E77D, the abundance fitness is -0.115 ± 0.11.

For P40A, the abundance fitness was -0.256 ± 0.068.

For R37H, the abundance fitness was -0.252 ± 0.1.

On to F52K, for which the abundance fitness is -1 ± 0.35.

For F52T, the abundance fitness was -1.03 ± 0.21.

On to F52Y, for which the abundance fitness was -0.105 ± 0.085.

Consider F52Q, for which the abundance fitness is -0.427 ± 0.16.

Consider Y33L, for which the abundance fitness is -0.204 ± 0.057.

On to E70F, for which the abundance fitness is -0.401 ± 0.12.

Regarding E70D, the abundance fitness was -0.152 ± 0.12.

As for C60M, the abundance fitness came to 0.122 ± 0.066.

In the case of C60F, the abundance fitness is -0.162 ± 0.058.

Regarding F50M, the abundance fitness turned out to be 0.113 ± 0.071.

As for D30W, the abundance fitness is -0.26 ± 0.074.

For the variant D30V, the abundance fitness was -0.339 ± 0.055.

Regarding A35W, the abundance fitness was -0.957 ± 0.17.

R6I: the abundance fitness is -0.389 ± 0.14.

As to P43G, the abundance fitness was -0.27 ± 0.052.
